Measured values as given in patent publication US20090233317.

Experiments:
[1] = test system: hsGRIM1 (human Global Repressor Involved in Myogenic differentiation), full length aa 1-749
[2] = test system: recombinantly expressed GRIM1 aa 3-147

## HAT domain of p300 (bacterially expressed)
[1]
  acetylation of GRIM1: detection of direct acetylation of GRIM1 (aa3-147 and of full-length GRIM1) by the HAT domain of p300
[2]
  acetylation of GRIM1: detection of direct acetylation of GRIM1 (aa3-147 and of full-length GRIM1) by the HAT domain of p300
